Measurements as given in US20110274702A1.

B1: FI6 variant 2 (antibody, V domains shown)
VH: QVQLVQSGGGVVQPGRSLRLSCVASGFTFSTYAMHWVRQAPGRGLEWVAVISYDGNYKYYADSVKGRFSISRDNSNNTLHLEMNTLRTEDTALYYCAKDSQLRSLLYFEWLSQGYFDPWGQGTLVTVTS
VL: DIQMTQSPDSLAVSLGARATINCKSSQSVTFNYKNYLAWYQQKPGQPPKVLIYWASARESGVPDRFSGSGSGTDFTLTISSLQAEDVAVYYCQQHYRTPPTFGQGTKVEIK
B2: FI28 variant 1 (antibody, V domains shown)
VH: EVQLVESGGGAVQPGESLKLSCAASGFTFSNYGMHWVRQAPGKGLEWVAVISYDGSNKYYADSVKGRFTISRDNSKDTLYLQMNSLRAEDTALFYCAKERPLRLLRYFDWLSGGANDYWGQGTLVTVSS
VL: DIVMTQSPDSLAVSLGERATINCKSSQSVLYSSNNKNYLAWYQQKPGQPPKLLIDWASTRESGVPDRFSGSGSGTDFTLTISNLQVEDVAVYYCQQYYRSPSFGQGTKLEIK

Key:
[1] = molecular target: H7N7 A/Netherlands/219/03 HA protein (influenza A virus H7N7 A/Netherlands/219/03); test: ELISA on HA
[2] = molecular target: H7N7 A/Netherlands/219/03 HA protein (influenza A virus H7N7 A/Netherlands/219/03); test: ELISA on coated HA

| Binder | Binding to HA by ELISA (% of subtype specific control antibodies) [1] | EC50 [2] |
| --- | --- | --- |
| B1 | 87.9% | 0.026 µg/mL |
| B2 | -0.5% |  |
